Earlier results in article PMC9428257.
Where “and” joins values, the source holds several entries; their conditions need not be identical. Equal values may be shown once. Read-outs that look alike come from different tables or passages of the source.

Assays:
[1] = biological target: APRIL (Homo sapiens) (UniProt O75888)
[2] = biological target: BAFF (Homo sapiens) (UniProt Q9Y275)
[3] = biological target: APRIL (Homo sapiens) (UniProt O75888); remark: listed apart in the source

Sequence of APRIL (Homo sapiens) (O75888 105-250): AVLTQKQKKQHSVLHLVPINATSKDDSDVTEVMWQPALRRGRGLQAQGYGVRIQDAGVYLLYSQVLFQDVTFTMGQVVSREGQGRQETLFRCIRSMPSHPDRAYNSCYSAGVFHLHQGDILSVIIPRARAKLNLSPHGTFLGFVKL
Sequence of sTACI-Fc ECD (O14836 1-165): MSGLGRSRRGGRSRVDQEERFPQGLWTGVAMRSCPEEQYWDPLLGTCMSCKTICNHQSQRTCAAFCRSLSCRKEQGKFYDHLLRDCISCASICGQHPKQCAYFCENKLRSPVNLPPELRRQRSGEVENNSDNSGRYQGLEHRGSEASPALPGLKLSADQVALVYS
Sequence of sBCMA ECD (Q02223 78-184): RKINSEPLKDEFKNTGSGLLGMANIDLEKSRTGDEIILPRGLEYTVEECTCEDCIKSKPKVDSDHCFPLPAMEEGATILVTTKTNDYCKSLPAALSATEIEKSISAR
Sequence of BAFF (Homo sapiens) (Q9Y275 134-285): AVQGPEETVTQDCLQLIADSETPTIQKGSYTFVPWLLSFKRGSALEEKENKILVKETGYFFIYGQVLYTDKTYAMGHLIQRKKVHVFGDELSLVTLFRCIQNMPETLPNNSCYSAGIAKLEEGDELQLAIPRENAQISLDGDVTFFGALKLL

## sTACI-Fc ECD (from UniProt O14836)
[1]
  Kd: 6.4 nM
[2]
  Kd: 0.16 nM

## sBCMA ECD (from UniProt Q02223)
[3]
  Kd: 0.025 nM and 0.048 nM
